Data reported in the DeepSol protein solubility set.

Experiment: soluble on expression in E. coli; label from the status in PepcDB or PDB records

MSLKTIAFDSNKYLNLQRDHILERISQFDGKLYMEFGGKMLEDYHAARVLPGYEPDNKIKLLKELKEQVEIVIAINANNIEHSKARGDLGISYDQEVFRLIDKFNTLDIYVGSVVITQYNNQPAADAFRKQLEKNGIASYLHYPIKGYPTDINHIISSEGMGKNDYIKTSRNLIVVTAPGPGSGKLATCMSQMYHDQINGVKSGYAKFETFPVWNLPLHHPVNLAYEAATADLDDVNMIDPFHLETYGKTAVNYNRDIEVFPVLNRTFERILSKSPYASPTDMGVNMVGFSIVNEEAAIEASKQEIIRRYYQTLVDFKAERVTESAVKKIELLMNDIGVTPDDRHVTVAAHQKAEQTGQPALALQLPNGQIVTGKTSGLFGPTAAVIINAIKTLAKIDKTTHLIEPEYVKPIQGLKVNHLGSHNPRLHSNEILIALAITAMTSEEANLAMKELGNLKGSEAHSTVILTEEDKNVLRKLGVNITFDPVYQHHKLYRKEGHHHHHH
soluble on expression in E. coli: soluble

MSLTLVDIHCHILPGIDDGSKDWETSIKLARDAVKDGITHAVCTPHTLNGKYLNHKDDVIRLTENFQDMLDEAKIPLTVFPGQEVRISGDLPDALDNDDILFLDEEGQYMLLEFPSDDVPTYAKDMIFSIQQRGITPIVVHPERNSRILKEPHILQELIEQGCLVQITASSYVGTFGQKIEEMSRRFIEAGQCACFASDAHDLPKRQYEYSAALKKLSNEFGSGRAQEFEDNARAIVNGDNVQLNWRPLKKKKKFWLFEGHHHHHH
soluble on expression in E. coli: not soluble

MREEDRRGGVKLSLTRLFLHERTVEIILRILKAEENGEKIYPLQISTDIGSPYSYVSKVLGELEKCSLVESRPEGRMRVVSLTPYGKVVASMLRDLYTELEKDFNSRMKLDILKDVYSNANGDVRVYLPVMAELEMLAKSTNDGFVVEEAKKLISEVKRKIEGAK
soluble on expression in E. coli: soluble

MSLAKNRLRAIPLGGAGEVGRNMWVLEQNDEILVLDCGVMFPEADMLGVDLVLPDITYLRDQKDKIKAIVLTHGHEDHIGAVPYLVPELDFPPIYGTPLTLGMLAGKLKEHRLLDRARLVKMQAGESFTVGSFTIEPFSVAHSIPDTVGLAIDTPVGLAIYLTDWKFDHTPVDGRPTDLVKLSELGRRSPLLLITDCVRVESKGYTPSEQVVGEAFDSIFATAPGRIIVATFASNVSRVQQVIDSAEAYGRKVVVAGRSMENTTRIALELGYLRAQQGTLIRPQEAAGLADDQVAVICTGSQGEPMSALARMANRDYPHVKIKEGDTVVVSATPIPGNEVSVNRVINNLFRLGAEVIYGGSPSSLAVHVSGHAAQEELKMALAILRPEFVVPFHGDYRHMMLYRKLALGMGGLFSESNVIIPENEGHHHHHH
soluble on expression in E. coli: not soluble

MLTIQFLCPLPNGLHARPAWELKEQCSQWQSEITFINHRQNAKADAKSSLALIGTGTLFNDSCSLNISGSDEEQARRVLEEYIQVRFIDSDSVQPTQAELTAHPLPRSLSRLNPDLLYGNVLASGVGVGTLTLLQSDSLDSYRAIPASAQDSTRLEHSLATLAEQLNQQLRERDGESKTILSAHLSLIQDDEFAGNIRRLMTEQHQGLGAAIISNMEQVCAKLSASASDYLRERVSDIRDISEQLLHITWPELKPRNKLVLEKPTILVAEDLTPSQFLSLDLKNLAGMILEKTGRTSHTLILARASAIPVLSGLPLDAIARYAGQPAVLDAQCGVLAINPNDAVSGYYQVAQTLADKRQKQQAQAAAQLAYSRDNKRIDIAANIGTALEAPGAFANGAEGVGLFRTEMLYMDRDSAPDEQEQFEAYQQVLLAAGDKPIIFRTMDIGGDKSIPYLNIPQEENPFLGYRAVRIYPEFAGLFRTQLRAILRAASFGNAQLMIPMVHSLDQILWVKGEIQKAIVELKRDGLRHAETITLGIMVEVPSVCYIIDHFCDEVDFFSIGSNDMTQYLYAVDRNNPRVSPLYNPITPSFLRMLQQIVTTAHQRGKWVGICGELGGESRYLPLLLGLGLDELSMSSPRIPAVKSQLRQLDSEACRELARQACECRSAQEIEALLTAFTPEEDVRPLLALENIFVDQDFSNKEQAIQFLCGNLGVNGRTEHPFELEEDVWQREEIVTTGVGFGVAIPHTKSQWIRHSSISIARLAKPIGWQSEMGEVELVIMLTLGANEGMNHVKVFSQLARKLVNKNFRQSLFAAQDAQSILTLLETELTF
soluble on expression in E. coli: soluble

MNFLSQRYTGKSLHPDETKCYKNFTQTAQKLTHRLAESINHYVNHIDCVINTNLYNRLLAEKKESNHMIYKERETWLEAILNTLPDHVFILDESGRYIESFGGTHHSKTFNAERYIGLQLSDVLSPTKADELMGFIFDVMQDNETKVVKYNLSLHDHLLLPIEELEALENPEEMWFEAIIKPVNAPENANKLVIWSVRDITKTHLLEQRLK
soluble on expression in E. coli: not soluble

MVGRELFKPVPSSTKPQSNASILARFRTAKSRHQPDRRGAQISANDRKSFVTRETPRTDSCFVSERLAMDDLVQIARCAGGKSVLRLTGVCLLTLLFAIASPAHSTHRPVDDLADVDLQLILAVDVSPSMSKVEQKVQRDGYVGAFRHADIARALKSGERGRIAVLYLEWAGPRQQTVVMPWTIVESLDDALILADRLAALPLTEGRGTSISGALSAAHALFAKSGLRSPRRVIDVSGDGPNNAGLPLQLVHDALTTGGVTINGLAISLRAADTLDSFGPHFIELYYESCVIGGSNAFVVTVENTADFANAIRKKLVNEIAGLSAKVQPATYRSHSRPVVLEHHHHHH
soluble on expression in E. coli: soluble

LALYRCAADVQAALDYYFDSETEREDTLEAVIGQFEVKAQSVIAYIKNQEITEKMLEGHIRRMTGKLKAVKAQNQSLKDYLARNMQAAGITEIKADDGTFKASFRKSEAVVILDEAQIPAEFMREAVKTEPDKTAIRKAIESGRQVAGAKIEGRKNLQIR
soluble on expression in E. coli: not soluble

GPGSMINLPDMWTAEQRRQHVAEMYRNKGLICPDYFLKNECPRSSSCSYIHIRNGETRKVPLSVCHFYAKRACLRDKCVFFHGTQAQLDQLHAMGAQTYRPQDYMAFAIPPPELLGTDQNVAPPVVTMPMPVPAPLVNNTMPISKPATNSPLLLLPIDASAATPFSMYWSSSPCQHRSPLSPAPIPGLAEPRPPAVSHPYTVFSFFQ
soluble on expression in E. coli: not soluble

MSTTGSAPLNLREWTAPEKLLPNGSPLVPVDARGADWHGIELGELDLRGAKLCRCDLRGTDLSHCQLDGADLRLARYDSQTVVPVGFDLSNSGAVGPGAKLNGVYLNSSDLRGMDLRGSMLLGSYLSGADLSGAILDGVSLAGSDLRSSTMRGAMCRGTRFGTCELDMADLRGANLEGAVLETVESIRGADFSLCTGLGAQIDALLSRSVAELDCWNPLTRSTTRDSLESLRAARSD
soluble on expression in E. coli: not soluble

MKKTLPKTEAPSSVGNGSDSPIEFDAIIRQVPDMDAAYVEIPFDVKTVYGKGRVRVNATFDGYPYTGYIVRMGLPCHILGLRQDIRRAIGKQPGDSVYVTLLPL
soluble on expression in E. coli: soluble

MSLVKPKYQRVVLKLSGEALAGEDGFGIKPPVIKEIVQEIKEVHELGIEMAIVVGGGNIWRGQIGAQMGMERAQADYMGMLATVMNALALQDTLENLGVPTRVQTSIEMRQIAEPYIRRRAERHLEKGRVVIFAGGTGNPYFSTDTTAALRAAEVDADVILMAKNNVDGVYSADPRVDETATKFEELTHLDVISKGLQVMDSTASSLSMDNDIPLVVFNLNEAGNIRRAILGENIGTTVRGKEGHHHHHH
soluble on expression in E. coli: soluble

MSQNVYQFIDLQRVDPPKKPLKIRKIEFVEIYEPFSETQAKAQADRCLSCGNPYCEWKCPVHNYIPNWLKLANEGRIMEAADLAHQTNSLPEVCGRVCPQDRLCEGSCTLNDEFGAVTIGNIERYISDKAIAMGWKPDMSHVHPTGKRVAVIGAGPAGLACADVLARNGVQAVVFDRHPEIGGLLTFGIPAFKLEKEVMIKRRKIFSEMGIEFQLNTEVGKDITMEALLKDYDAVFLGVGTYQSMRGGLENEEANGVYDALPFLIANTKQLMGYEATAHEPYINMQGKRVVVLGGGDTAMDCVRSSIRQGATDVVCAYRRDEVNMPGSKREVKNAREEGVEFKFNLQPLSIEVNSNGKVCGVRMVRTQLGAPDAQGRRMAEQIPGSEHVLPADAVVMAFGFRPHSMEWLAAHDVKLDKQGRVIAPESTDNAFQTSNPKIFAGGDIVRGSDLVVTAIAEGRKAADGIMNYLEV
soluble on expression in E. coli: not soluble

MSLEGHIVITGATGVIGSEVARRLIKSGREVVVFARSPQSAAAKVPGAADYVRWDSDMAPDGWSSSIDGAYAVIHLAGRPLLETRWTEEHKVACYDSRIKGTRALVAAMASASVKPKVFVSSSAIGYYGSFDRCEETDPLTEKAAPGKDFLAKICFDWEKEARPAETLGTRVVLLRTGIVLSTKGGMLQKMMIPFSYFVGGPVGSGDQCLSWIHLDDEVSIILQALDNADWSGPVNAVAPEPVSMKAFADSLGLVMHRPSLFPVPKLAVQILLGEGADYAVKGQKVSPEFLKERDFHFAWPSLNEALADLVSRGEGHHHHHH
soluble on expression in E. coli: soluble

MDVHIDNQVLSGLGTPLLVHLFVPDTVMAELCPNRVPNCEGAWCQTLFSDRTGLTRVCRVFAARGMLPGRPSHRGTFTSVPVYCDEGLPELYNPFHVAALRFYDEGGLVGELQIYYLSLFEGAKRALTDGHLIREASGVQESAAAMQPIPIDPGPPGGAGIEHMPVAAAQVEHPKTYDLKQILLEITQEENRGEQRLGHAGSPALCLGLRLRAGAETKAAAETSVSKHHPALENPSNIRGSAGGEGGGGRAGTGGTVGVGSGALSRVPVSFSKTRRAIRESRALVRGIAHIFSPHALYVVTYPELSAQGRLHRMTAVTHASPATDLAEVSILGAPEREFRFLISVALRISASFREKLAMQAWTAQQEIPVVIPTSYSRIYKNSDLIREAFFTVQTRVSWESCWVKATISNAPKTPDACLWIDSHPLYEEGASAWGKVIDSRPPGGLVGAASQLVALGTDGHCVHLATTSDGQAFLVLPGGFVIKGQLALTPEERGYILARHGIRREQ
soluble on expression in E. coli: not soluble

MFNKKMVAMAMTVPLVMGTLSTVSAVETKKQVKVEAYSPQKKAIEYLKGNANQYGLKPDLSDLQYISTTETPVASYVRFQQVVNGAPVFSNQITVTLNGEGKGVLAVSDYQPIKAVKQVTEKISEKDAIQKSMAYVGEASEQNLWAPTEKEFGYIIEEGIARPVYKVVVHSNNPFGAWETFIDAENGKLIKKVDINRKVEGTGKVFLPNPVVSSGSLAGLKDNNDADSTALTNQLKTVTLKGLDGTGFLIGEYVTISSKARTKSTNLQFNYTRANDSFEDVMSYYHIDTLQRYIQSLGFQNINNRSIKVNVNGTTADNSFYSPTTKALTFGTGGVDDAEDAGIIAHEYGHSIQDNQVPGFGSSAEGGAMGEGFGDFLGATYEDAVSTTGYGKACVGEWDAAAYSSSDPTCLRRLDTNKVYPKDMKNQVHADGEIWSQGQYEMAQAFGRDVATKIILQSHWSLTPNSKFSDGAKAIKQADALLYGGQHAADIDRIWAARGISTN
soluble on expression in E. coli: not soluble

MSLKLVLHSAKRASAPYRVRIGLNLKGLAFELRPVDLVANAHQGEAYRALNAQALVPTLEVDGRPLTQSLAILEWLDETYPAHPLLPTDAFDRATVRAMAEIIACDIHPLNNLRILRQLTALEIDEPARNAWVARWIQDGFSALEPMIARHGQGYAFGDAPGLVDCLLVPQVFNANRFNVDLSPFPALEAAAAHARAHPAIAAAHPDHHPEEGHHHHHH
soluble on expression in E. coli: soluble

MGSDKIHHHHHHMIKDTVFFAPGVSGGSNASSLSSRHRRAAIILHEIYGINAHIQRAGHEWMTRGFDIYIPALFPHHTPFRYEQQEEAYRHFSANVGFDPAVVTTLLHDLRTQYETLIVVGYSVGATLAWLSAASGLCDGVVCYYGSRIRQYLHLAPLCPTLVIVARYEPAFDPLAMRQALEKRPRVQCKMYDARHGFCDADSATFDAALSHQVMDDVTAFIRDITCANTSPDFQL
soluble on expression in E. coli: not soluble
